koff data for four molecules are collected here from article PMC10630626 (2023).

Test in all cases: SPR
For orientation: In SPR one partner is held on a chip, and binding of the other changes the refractive index at the surface.

Assay [1] has as its target Palivizumab.
Assay [2] has as its target Palivizumab single-chain variable fragment, light-heavy order, fused to IgG1 Fc (P^scFvLHFc).
Assay [3] has as its target Palivizumab single-chain variable fragment, heavy-light order, fused to IgG1 Fc (P^scFvHLFc).

The koff is the rate constant with which the complex falls apart. Higher therefore signals fast dissociation.

Palivizumab, sequence (VH, as listed by the source, chain 1 of 2): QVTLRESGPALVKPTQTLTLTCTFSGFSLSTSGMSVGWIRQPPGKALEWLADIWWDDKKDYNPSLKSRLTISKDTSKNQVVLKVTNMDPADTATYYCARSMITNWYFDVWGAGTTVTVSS
Palivizumab, sequence (VL, as listed by the source, chain 2 of 2): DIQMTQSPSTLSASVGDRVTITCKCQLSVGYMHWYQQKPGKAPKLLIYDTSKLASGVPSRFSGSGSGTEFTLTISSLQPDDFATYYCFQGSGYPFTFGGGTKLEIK
Palivizumab single-chain variable fragment, light-heavy order, fused to IgG1 Fc (P^scFvLHFc), sequence (chain, as listed by the source, chain 1 of 2): as the sequence (VH, as listed by the source, chain 1 of 2) above
Palivizumab single-chain variable fragment, light-heavy order, fused to IgG1 Fc (P^scFvLHFc), sequence (chain, as listed by the source, chain 2 of 2): as the sequence (VL, as listed by the source, chain 2 of 2) above
Palivizumab single-chain variable fragment, heavy-light order, fused to IgG1 Fc (P^scFvHLFc), sequence (chain, as listed by the source, chain 1 of 2): as the sequence (VH, as listed by the source, chain 1 of 2) above
Palivizumab single-chain variable fragment, heavy-light order, fused to IgG1 Fc (P^scFvHLFc), sequence (chain, as listed by the source, chain 2 of 2): as the sequence (VL, as listed by the source, chain 2 of 2) above

B1: anti-idiotypic nanobody for Palivizumab 3 (AIP3^VHH), soluble (VHH)
VHH: DVQLQESGGGLVQPGGSLRLSCVASGRTWSIYAMGWFRQAPGKEREFVTAISISRSESVTHYAESVTGRFTISRDNAKNTLHLQMNSLKPEDTAVYFCAADRRSIDPHHTIDYWGQGTQVTVSS
In assay [1], B1 displayed a koff of 0.00308 s⁻¹.

B2: anti-idiotypic nanobody for Palivizumab 2 (AIP2^VHH), soluble (VHH)
VHH: DVQLQESGGGLVQAGGSLRLSCAASESLFRLNAMGWYRQAPGKQRELVAGITTSGDAVYADSVKGRFTISRDSAKNTVYLQTNNLKPEDTAVYYCNVRPRAGTWENARIGVWGQGTQVTVSS
In assay [1], B2 showed an off-rate constant (koff) of 0.000733 s⁻¹. This koff is about 4.2-fold lower than that of the molecule before.

B3: anti-idiotypic nanobody for Palivizumab 4 (AIP4^VHH), soluble (VHH)
VHH: DVQLQESGGGLVQAGGSLRLSCVASGRAFSRYDMGWFRQAPGKEREFVAQISWRGGSATSYADTVKGRFTIARDNAKNTVYLQMNSLKPEDTAVYYCNARTPTLSSWGQGTQVTVSS
In turn, B3 came in with a koff in assay [1] of 0.0148 s⁻¹.

B4: anti-idiotypic nanobody for Palivizumab 1 (AIP1^VHH), soluble (VHH)
VHH: DVQLQESGGGLVQAGGSLRLSCVASGLTFRYDMGWFRQAPGKEREFVAQITWRGGSATYYADSVKGRFTIARDIAKNAVYLQMNSLKPEDTAVYYCAAAYGSAGYRPDEYDSWGQGTQVTVSS
Regarding B4, the koff came out at 4.2e-05 s⁻¹ in assay [2] and 6.56e-05 s⁻¹ in assay [3].
